Here are results for eight molecules from paper PMC7360973, “Feedback regulation of heat shock factor 1 (Hsf1) activity by Hsp70‐mediated trimer unzipping and dissociation from DNA” (The EMBO Journal, 2020).

The target of series [1] is T1, Human Hsc70 (HSPA8) (human, UniProt P11142 1-646).
T1 construct: Hsc70 (HSPA8), constitutive Hsp70, human, wild type; In the functional rows from MEF and HeLa cells the Hsc70/Hsp70 is the cells' own; this molecule stands for it there; source: E. coli BL21 (DE3) Rosetta, purified (Ni-IDA, Ulp1 cleavage, reverse Ni-IDA)
T1 sequence (P11142 whole entry): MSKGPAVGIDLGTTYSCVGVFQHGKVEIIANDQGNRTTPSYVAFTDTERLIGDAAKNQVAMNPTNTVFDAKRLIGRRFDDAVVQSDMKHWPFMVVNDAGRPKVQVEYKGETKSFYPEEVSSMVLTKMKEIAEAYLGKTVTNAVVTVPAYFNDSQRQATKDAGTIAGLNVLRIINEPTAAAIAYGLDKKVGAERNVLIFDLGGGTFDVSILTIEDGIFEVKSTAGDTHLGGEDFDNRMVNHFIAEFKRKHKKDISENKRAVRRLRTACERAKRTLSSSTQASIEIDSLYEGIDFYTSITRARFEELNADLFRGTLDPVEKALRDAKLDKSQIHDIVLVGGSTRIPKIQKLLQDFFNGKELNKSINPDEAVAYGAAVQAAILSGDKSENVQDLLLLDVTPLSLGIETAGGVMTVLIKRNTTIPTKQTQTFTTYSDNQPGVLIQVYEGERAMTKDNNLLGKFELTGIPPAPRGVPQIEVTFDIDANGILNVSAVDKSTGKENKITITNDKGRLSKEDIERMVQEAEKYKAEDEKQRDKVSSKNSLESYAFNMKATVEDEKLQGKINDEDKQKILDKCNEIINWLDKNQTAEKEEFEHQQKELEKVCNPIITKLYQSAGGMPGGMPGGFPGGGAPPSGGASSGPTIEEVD
The experiment in a line: fluorescence polarisation; fluorescein-labelled peptide at 1 μM titrated with Hsc70 (0–60 μM), 2 h at 25°C, HKM150 buffer (25 mM HEPES/KOH pH 7.6, 150 mM KCl, 5 mM MgCl2); Hsc70 concentrated in the presence of 1 mM ATP; quadratic fit. To be noted: both partners purified. (In general: Polarisation of emitted light reports the rotation of a fluorescent probe.)

Series [2] concerns the molecule itself. The experiment in a line: SEC + native gel or EMSA; trimer-to-monomer ratio of freshly purified Hsf1 in the absence of heat shock, by gel filtration (Superdex 200) and BN-PAGE. Background: In EMSA bound probe runs differently from free probe, usually more slowly.
Series [3] concerns the molecule itself. The series is described as follows: native gel or EMSA; blue-native PAGE of lysates (15 μg total protein) of transfected HSF1−/− MEFs, immunoblot with Hsf1 antiserum.
In series [4] the target is T1, Human Hsc70 (HSPA8). The series is described as follows: HDX-MS; 6 μM Hsf1 (monomer or trimer) pre-incubated 30 min at 25°C with 12 μM Hsc70 or 9 μM DnaJB1 in 25 mM HEPES/NaOH pH 7.5, 150 mM NaCl, 10% glycerol, 2 mM DTT; diluted 10-fold in D2O buffer, 30 s at 25°C; online pepsin digestion. To be noted: both partners purified.
Series [5] deals with the molecule itself. The series is described as follows: native gel or EMSA; blue-native PAGE (8% gel, on ice) of purified Hsf1 wild type or variants, also after 10 min at 4–42°C (5 μM protein); Coomassie stain or immunoblot with Hsf1 antiserum.

Where a chain is given by its changes, count along the chain named. In names and notes the source's numbering stands. Ends that are not written are not given here.

B1: Hsf1 peptide S461‐Q471‐C (peptide)
peptide: SGKQLVHYTAQC(fluorescein‑5‑maleimide)
notes: Hsf1, human, residues 461-471 (in the TAD); C-terminal cysteine for labelling, not part of the Hsf1 stretch; also called residues 461–471
Turning to B1, in the series with Human Hsc70 (HSPA8) [1], the Kd is 5 to 30 µM.

B2: Hsf1‐I190S,I194S (natural protein, human, UniProt Q00613 1-529, looked up)
chain: MDLPVGPGAAGPSNVPAFLTKLWTLVSDPDTDALICWSPSGNSFHVFDQGQFAKEVLPKYFKHNNMASFVRQLNMYGFRKVVHIEQGGLVKPERDDTEFQHPCFLRGQEQLLENIKRKVTSVSTLKSEDIKIRQDSVTKLLTDVQLMKGKQECMDSKLLAMKHENEALWREVASLRQKHAQQQKVVNKLSQFLSSLVQSNRILGVKRKIPLMLNDSGSAHSMPKYSRQFSLEHVHGSGPYSAPSPAYSSSSLYAPDAVASSGPIISDITELAPASPMASPGGSIDERPLSSSPLVRVKEEPPSPPQSPRVEEASPGRPSSVDTLLSPTALIDSILRESEPAPASVTALTDARGHTDTEGRPPSPPPTSTPEKCLSVACLDKNELSDHLDAMDSNLDNLQTMLSSHGFSVDTSALLDLFSPSVTVPDMSLPDLDSSLASIQELLSPQEPPRPPEAENSSPDSGKQLVHYTAQPLFLLDPGSVDTGSNDLPVLFELGEGSYFSEGDGFAEDPTISLLTGSEPPKAKDPTVS
notes: Hsf1, human, with I190S and I194S in HR-B; source: purified (gel filtration)
On to B2, for which the “stoichiometry N” value in series [2] was determined as 3.

B3: Hsf1‐I202S,L203S,V205S expressed from pIRES‐HSF1‐I202S,L203S,V205S_hrGFP in cells (natural protein, human, UniProt Q00613 1-529, looked up)
chain: B2 chain with S190I, S194I, I202S, L203S, V205S
notes: Hsf1, human, with I202S, L203S, V205S; source: HSF1−/− MEF or HeLa, transiently transfected, in lysate or in cells
As for B3, the “stoichiometry N” value in series [3] was found to be 3.

B4: Human heat shock transcription factor 1 (Hsf1), wild type (natural protein, UniProt Q00613 1-529, looked up)
chain: B2 chain with S190I, S194I
notes: heat shock transcription factor 1 (Hsf1), human, wild type; Purified both as a monomer and as a trimer; One molecule is used for both states; the assay's format tells which was used; also called Hsf1wt; wt; source: E. coli BL21 (DE3) Rosetta, purified (Ni-IDA, Ulp1 cleavage, Superdex 200); monomeric and trimeric fractions collected separately; not shown: His6-SUMO, N-terminal, cleaved
For the molecule B4, the binding result in the series with Human Hsc70 (HSPA8) [4] is given as “binds”.

B5: Hsf1∆(202–213) (natural protein, human, UniProt Q00613 1-529, looked up)
chain: MDLPVGPGAAGPSNVPAFLTKLWTLVSDPDTDALICWSPSGNSFHVFDQGQFAKEVLPKYFKHNNMASFVRQLNMYGFRKVVHIEQGGLVKPERDDTEFQHPCFLRGQEQLLENIKRKVTSVSTLKSEDIKIRQDSVTKLLTDVQLMKGKQECMDSKLLAMKHENEALWREVASLRQKHAQQQKVVNKLIQFLISLVQSNRNDSGSAHSMPKYSRQFSLEHVHGSGPYSAPSPAYSSSSLYAPDAVASSGPIISDITELAPASPMASPGGSIDERPLSSSPLVRVKEEPPSPPQSPRVEEASPGRPSSVDTLLSPTALIDSILRESEPAPASVTALTDARGHTDTEGRPPSPPPTSTPEKCLSVACLDKNELSDHLDAMDSNLDNLQTMLSSHGFSVDTSALLDLFSPSVTVPDMSLPDLDSSLASIQELLSPQEPPRPPEAENSSPDSGKQLVHYTAQPLFLLDPGSVDTGSNDLPVLFELGEGSYFSEGDGFAEDPTISLLTGSEPPKAKDPTVS
notes: source: E. coli BL21 (DE3) Rosetta, purified (Ni-IDA, Ulp1 cleavage, Superdex 200); not shown: His6-SUMO, N-terminal, cleaved
As for B5, in series [5], the binding result is on record as “binds”.

B6: Hsf1 peptide G204‐N214‐C (peptide)
peptide: GVKRKIPLMLNC(fluorescein‑5‑maleimide)
notes: Hsf1, human, residues 204-214; C-terminal cysteine for labelling, not part of the Hsf1 stretch
For the molecule B6, in the series with Human Hsc70 (HSPA8) [1], the binding result is recorded as “binds”.

B7: Hsf1 peptide Y468‐S480‐C (peptide)
peptide: YTAQPLFLLDPGSC(fluorescein‑5‑maleimide)
notes: Hsf1, human, residues 468-480 (in the TAD); C-terminal cysteine for labelling, not part of the Hsf1 stretch
With B7, the binding result with Human Hsc70 (HSPA8) [1] is on record as “binds”.

B8: Hsf1 peptide N200‐K208‐C (peptide)
peptide: NRILGVKRKC(fluorescein‑5‑maleimide)
notes: Hsf1, human, residues 200-208; C-terminal cysteine for labelling, not part of the Hsf1 stretch
Turning to B8, in the series with Human Hsc70 (HSPA8) [1], the binding result is reported as “binds”.

In general, Kd refers to the equilibrium constant for the complex coming apart. Broadly, the stoichiometry N is a count of units in the complex or per binding partner.
